Publication doi:10.1101/2022.07.11.499617, “Direct attenuation of Arabidopsis ERECTA signaling by a pair of U-box E3 ligases” (bioRxiv, 2022)
Where two headings read alike, the source gives them in different places.

T1: GST-PUB31 (Arabidopsis thaliana, UniProt Q9FHN9 1-444)
T1 chain: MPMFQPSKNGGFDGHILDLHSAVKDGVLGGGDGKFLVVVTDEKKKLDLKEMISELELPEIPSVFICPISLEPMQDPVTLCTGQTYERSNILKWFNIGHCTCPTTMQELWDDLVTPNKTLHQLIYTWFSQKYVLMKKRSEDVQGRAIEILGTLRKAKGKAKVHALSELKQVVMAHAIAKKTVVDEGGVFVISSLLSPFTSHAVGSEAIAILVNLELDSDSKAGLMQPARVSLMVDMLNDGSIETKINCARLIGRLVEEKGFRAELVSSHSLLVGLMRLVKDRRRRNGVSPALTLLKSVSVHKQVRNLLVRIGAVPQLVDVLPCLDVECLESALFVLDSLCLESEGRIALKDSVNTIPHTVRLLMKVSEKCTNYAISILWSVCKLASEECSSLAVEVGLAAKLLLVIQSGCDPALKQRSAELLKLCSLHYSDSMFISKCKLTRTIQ

T2: GST-PUB30 (Arabidopsis thaliana, UniProt Q058P4 1-448)
T2 chain: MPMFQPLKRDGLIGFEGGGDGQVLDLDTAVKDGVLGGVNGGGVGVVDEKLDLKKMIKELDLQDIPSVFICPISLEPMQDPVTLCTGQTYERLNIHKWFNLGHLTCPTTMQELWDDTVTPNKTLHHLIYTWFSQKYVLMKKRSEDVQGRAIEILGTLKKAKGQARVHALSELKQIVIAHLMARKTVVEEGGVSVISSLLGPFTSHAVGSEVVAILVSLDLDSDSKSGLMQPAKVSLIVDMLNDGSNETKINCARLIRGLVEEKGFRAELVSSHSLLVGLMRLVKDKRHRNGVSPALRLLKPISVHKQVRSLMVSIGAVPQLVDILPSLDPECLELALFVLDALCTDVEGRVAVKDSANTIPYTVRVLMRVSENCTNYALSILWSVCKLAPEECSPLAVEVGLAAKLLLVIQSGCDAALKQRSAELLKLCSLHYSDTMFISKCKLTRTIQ

T3: GST-PUB30 (Arabidopsis thaliana, UniProt Q058P4 1-448)
T3 construct: Plant U-box ubiquitin E3 ligase PUB30, Arabidopsis, full length
T3 sequence (looked up): T2 chain

T4: GST-PUB31 (Arabidopsis thaliana, UniProt Q9FHN9 1-444)
T4 construct: Plant U-box ubiquitin E3 ligase PUB31, Arabidopsis, full length
T4 sequence (looked up): T1 chain

B1: MBP-ERECTA_CD (domain or fragment)
chain: CRPHNPPPFLDGSLDKPVTYSTPKLVILHMNMALHVYEDIMRMTENLSEKYIIGHGASSTVYKCVLKNCKPVAIKRLYSHNPQSMKQFETELEMLSSIKHRNLVSLQAYSLSHLGSLLFYDYLENGSLWDLLHGPTKKKTLDWDTRLKIAYGAAQGLAYLHHDCSPRIIHRDVKSSNILLDKDLEARLTDFGIAKSLCVSKSHTSTYVMGTIGYIDPEYARTSRLTEKSDVYSYGIVLLELLTRRKAVDDESNLHHLIMSKTGNNEVMEMADPDITSTCKDLGVVKKVFQLALLCTKRQPNDRPTMHQVTRVLGSFMLSEQPPAATDTSATLAGSCYVDEYANLKTPHSVNCSSMSASDAQLFLRFGQVISQNSE
B2: MBP-BAK1_CD (domain or fragment, Arabidopsis thaliana, UniProt Q94F62 247-615, looked up)
chain: AWWRRKKPQDHFFDVPAEEDPEVHLGQLKRFSLRELQVASDNFSNKNILGRGGFGKVYKGRLADGTLVAVKRLKEERTQGGELQFQTEVEMISMAVHRNLLRLRGFCMTPTERLLVYPYMANGSVASCLRERPESQPPLDWPKRQRIALGSARGLAYLHDHCDPKIIHRDVKAANILLDEEFEAVVGDFGLAKLMDYKDTHVTTAVRGTIGHIAPEYLSTGKSSEKTDVFGYGVMLLELITGQRAFDLARLANDDDVMLLDWVKGLLKEKKLEALVDVDLQGNYKDEEVEQLIQVALLCTQSSPMERPKMSEVVRMLEGDGLAERWEEWQKEEMFRQDFNYPTHHPAVSGWIIGDSTSQIENEYPSGPR
notes: BRI1-ASSOCIATED RECEPTOR KINASE1 (BAK1/SERK3), Arabidopsis; cytoplasmic domain

Key:
GST-PUB31 [1] = target: T1, GST-PUB31; experiment: BLI
GST-PUB30 [2] = target: T2, GST-PUB30; experiment: BLI
GST-PUB31 [3] = target: T1, GST-PUB31; experiment: BLI
GST-PUB30 [4] = target: T2, GST-PUB30; experiment: BLI
GST-PUB30 [5] = target: T3, GST-PUB30; experiment: BLI; Octet Red96; GST-PUB30 or GST-PUB31 loaded on anti-GST probes (2000 nM for ERECTA_CD, 1000 nM for BAK1_CD); ERECTA_CD or BAK1_CD as analyte at seven concentrations; 30 °C; 1x PBS with 0.02 % Tween 20; 1:1 model, steady-state analysis; conditions: both partners purified
GST-PUB31 [6] = target: T4, GST-PUB31; experiment: as above; conditions: both partners purified

| Binder | Kd (GST-PUB31 [1]) | Kd (GST-PUB30 [2]) | Kd (GST-PUB31 [3]) | Kd (GST-PUB30 [4]) | fold stronger interaction than ERECTA_CD (GST-PUB30 [5]) | fold stronger interaction than ERECTA_CD (GST-PUB31 [6]) |
| --- | --- | --- | --- | --- | --- | --- |
| B1 | 11 µM | 15 µM | – | – | – | – |
| B2 | – | – | 2000 nM | 2400 nM | ~10 fold | ~10 fold |
